From article PMC6669920, “Identification of a basal system for unwinding a bacterial chromosome origin”

B1: Wild-type short scaffold (DnaA-box#6/7 + DnaA-trios), oHM752/oHM590/oHM558 (dsDNA)
DNA 1: ACTTATCCACAAATCCACAGGCCC
DNA 2: TACTATTACTTCTACTA
DNA 3: TAGTAGAAGTAATAGTAGGGCCTGTGGATTTGTGGATAAGT
B2: ΔDnaA-boxes long scaffold, oHM753/oHM590/oHM754 (dsDNA)
DNA 1: CGTTCGGCTGCGGCGAGCGGTATCAGCTCACTCAAAGGCGGTAATACGGCTTCCTTGCTTCCTTGCGGCCC
DNA 2: TACTATTACTTCTACTA
DNA 3: TAGTAGAAGTAATAGTAGGGCCGCAAGGAAGCAAGGAAGCCGTATTACCGCCTTTGAGTGAGCTGATACCGCTCGCCGCAGCCGAACG

How the values were obtained:
[1] = molecular target: DnaA I190A (Bacillus subtilis, UniProt P05648 1-446, I190A); test: EMSA; 1 mM ADP; shift similar to wild-type; EMSA: 25 nM scaffold, 0-250 nM DnaA, 10 mM HEPES-KOH pH 8, 100 mM potassium glutamate, 1 mM magnesium acetate, 30% glycerol, 10% DMSO, 1 mM ADP or ATP, 20°C 2 h; 6% PAGE in 45 mM Tris, 45 mM boric acid, 5 mM MgCl2; settings: protein: recombinant; tags: N-terminal His-tag removed with Factor Xa; label: 5' Cy3 on strand 1; 5' Cy5 on strand 2; blunt; 3 strands, nick between strands 1 and 2, both annealed to strand 3
[2] = molecular target: T1, DnaA wild-type (Bacillus subtilis, UniProt P05648 1-446); test: EMSA; 1 mM ADP; single shifted species; EMSA: 25 nM scaffold, 0-250 nM DnaA, 10 mM HEPES-KOH pH 8, 100 mM potassium glutamate, 1 mM magnesium acetate, 30% glycerol, 10% DMSO, 1 mM ADP or ATP, 20°C 2 h; 6% PAGE in 45 mM Tris, 45 mM boric acid, 5 mM MgCl2; settings: protein: recombinant; tags: N-terminal His-tag removed with Factor Xa; label: 5' Cy3 on strand 1; 5' Cy5 on strand 2; blunt; 3 strands, nick between strands 1 and 2, both annealed to strand 3
[3] = molecular target: T1, DnaA wild-type; test: EMSA; 1 mM ADP; up to 250 nM DnaA; EMSA: 25 nM scaffold, 0-250 nM DnaA, 10 mM HEPES-KOH pH 8, 100 mM potassium glutamate, 1 mM magnesium acetate, 30% glycerol, 10% DMSO, 1 mM ADP or ATP, 20°C 2 h; 6% PAGE in 45 mM Tris, 45 mM boric acid, 5 mM MgCl2; settings: protein: recombinant; tags: N-terminal His-tag removed with Factor Xa; label: 5' Cy5 on strand 2; blunt; 3 strands, nick between strands 1 and 2, both annealed to strand 3

Binder	binding result [1]	binding result [2]	binding result [3]
B1	binds	binds	
B2			no binding
